From patent US7919091B2, “Lipolysis stimulated receptor (LSR) specific antibodies” (Serono Genetics Institute S.A., priority 1997, dated 2011)

How the values were obtained:
LSR = target: T1, LSR (Homo sapiens, UniProt Q86X29); assay: Effect of leptin on the LSR activity of human fibroblasts HF; format: cell-based; details: incubation with increasing leptin, 50 μg/ml 125I-LDL, 500 μM oleate
T1 construct: GM00486A, GM007001B, GM00488C; host or cells: human skin fibroblasts, normal or HF (familial hypercholesterolemia, LDL-receptor deficient)
T1 sequence (Q86X29 1-649) 1: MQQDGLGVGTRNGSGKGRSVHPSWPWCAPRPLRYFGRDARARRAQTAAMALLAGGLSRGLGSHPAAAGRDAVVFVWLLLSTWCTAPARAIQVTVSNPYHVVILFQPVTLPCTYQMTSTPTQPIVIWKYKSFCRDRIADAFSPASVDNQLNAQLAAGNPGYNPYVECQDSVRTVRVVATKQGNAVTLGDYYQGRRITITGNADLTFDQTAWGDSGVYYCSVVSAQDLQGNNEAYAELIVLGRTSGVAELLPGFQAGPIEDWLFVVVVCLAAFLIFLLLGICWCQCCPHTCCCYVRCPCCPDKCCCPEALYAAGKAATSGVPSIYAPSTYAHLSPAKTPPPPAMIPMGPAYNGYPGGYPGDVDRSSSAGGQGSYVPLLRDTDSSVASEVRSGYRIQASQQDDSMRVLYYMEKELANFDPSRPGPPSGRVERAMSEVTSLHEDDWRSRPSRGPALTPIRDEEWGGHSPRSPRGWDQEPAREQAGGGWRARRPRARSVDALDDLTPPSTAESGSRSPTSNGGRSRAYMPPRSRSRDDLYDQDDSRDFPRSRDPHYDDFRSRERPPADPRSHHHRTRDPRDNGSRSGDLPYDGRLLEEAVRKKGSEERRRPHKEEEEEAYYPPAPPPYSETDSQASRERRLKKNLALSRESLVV
T1 sequence (Q86X29 1-649) 2: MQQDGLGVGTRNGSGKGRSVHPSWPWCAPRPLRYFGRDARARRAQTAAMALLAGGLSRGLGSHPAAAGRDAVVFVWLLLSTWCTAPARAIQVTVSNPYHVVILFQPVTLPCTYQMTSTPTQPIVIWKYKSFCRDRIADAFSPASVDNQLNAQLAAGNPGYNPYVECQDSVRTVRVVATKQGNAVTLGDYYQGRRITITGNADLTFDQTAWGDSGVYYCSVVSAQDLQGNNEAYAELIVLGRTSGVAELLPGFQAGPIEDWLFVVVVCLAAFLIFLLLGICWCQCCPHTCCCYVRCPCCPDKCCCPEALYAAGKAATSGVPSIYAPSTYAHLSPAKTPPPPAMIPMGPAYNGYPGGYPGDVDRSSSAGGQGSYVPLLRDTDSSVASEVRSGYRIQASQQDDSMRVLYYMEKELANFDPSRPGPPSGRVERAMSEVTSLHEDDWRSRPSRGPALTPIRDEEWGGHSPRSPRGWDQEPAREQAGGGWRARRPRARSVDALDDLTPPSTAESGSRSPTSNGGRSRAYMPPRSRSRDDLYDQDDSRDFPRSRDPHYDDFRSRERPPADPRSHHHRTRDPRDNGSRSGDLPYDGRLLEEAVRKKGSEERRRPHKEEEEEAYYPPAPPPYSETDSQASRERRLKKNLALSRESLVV
Experimental: The fibroblasts HF are incubated for 30 minutes at 37° C. with increasing concentrations of leptin, and then for 2 hours at 37° C. with 50 μg/ml of ^125I-LDL, in the presence of 500 μM oleate. The binding, internalization and degradation of the LDLs are measured as indicated in Example 1.

[1] = Long-term treatment with leptin on ob/ob mice: weight and postprandial lipemic response; format: in vivo
Experimental: The ob/ob obese mice received a daily injection of either leptin, or of an equivalent volume of sterile PBS, for 30 days. The injected doses are 50 μg/animal from day 0 to day 4, 100 μg/animal from day 5 to day 17, and 150 μg/animal from day 18 to day 30. Several parameters indicated below are measured: • the weight (FIG. 29 A): the change in weight is measured for 6 animals, over the duration of the treatment; • the postprandial lipemic response (FIG. 29 B): it is measured according to the protocol detailed in Example 5 on three animals in each group, on day 29; • the apparent number of LSR receptors (FIG. 29 C): it is measured according to the protocol detailed in Example 4 on three animals in each group, on day 30; • the quantity of LSR mRNA ([…]): it is estimated by Northern blotting as indicated in the protocol of Example 2.

LSR receptors = tested on: LSR receptors; set-up: species or system mice; details: mouse
Experimental: The apparent number of LSR receptors on plasma membranes is measured as previously described (Mann et al., 1995) by estimating the quantity of LDL bound to a plasma membrane preparation. The plasma membranes (100 μg) are incubated with 1 mM oleate; they are then washed three times as indicated above, and then incubated for 1 hour at 37° C. with 40 μg/ml of ^125I-LDL. The quantity of ^125I-LDL bound to the plasma membranes is then determined by counting. The mean is established on 3 measurements per animal for 3 different animals in each of the groups.

LSR activity of human fibroblasts HF (LSR): increased
B1: leptin: mouse recombinant leptin with hexahistidine end, expressed in E. coli (protein, UniProt P41160 22-167, looked up)
Leptin: VPIQKVQDDTKTLIKTIVTRINDISHTQSVSAKQRVTGLDFIPGLHPILSLSKMDQTLAVYQQVLTSLPSQNVLQIANDLENLRDLLHLLAFSKSCSLPQTSGLQKPESLDGVLEASLYSTEVVALSRLQGSLQDILQQLDVSPEC
modifications: hexahistidine tag
notes: mouse recombinant leptin with hexahistidine end, expressed in E. coli
weight ([1]; daily leptin injection over 30 days): very significant loss of weight
postprandial lipemic response ([1]; day 29 of leptin treatment): clear reduction
apparent number of LSR receptors expressed at the surface of the hepatocytes in vivo (LSR receptors): increase
